According to US5804555A, “Antioxidant” (Morinaga Milk Industry Co., Ltd., priority 1992, dated 1998):

Experiment: Test 1: antioxidant effect on linoleic acid, peroxides by ferric thiocyanate method
Assay type: biochemical
Settings: 0.2% added to linoleic acid, 60° C.
Method: A sample was prepared by adding dl-α tocopherol (manufactured by Wako Jun-yaku Kogyo Company), bovine lactoferrin (manufactured by Sigma Company), hydrolysate of lactoferrin (prepared by the same method as in the Example 2), or peptide (prepared by the same method as in the Example 3) to a final concentration of 0.2% (weight percentage; same applies hereafter except for the degree of decomposition) to commercially available linoleic acid (manufactured by Wako Jun-Yaku Kogyo Company) containing no additive. Hereafter, the thus prepared samples are individually referred to as […].
Antioxidant effect of the individual samples was tested by the method of Mitsuda et al.(Eiyo to Shokuryo, Vol. 19, p. 210, 1966) described below.
The above-mentioned samples were added to a mixed solution containing 10 ml of ethanol, 10 ml of 0.1M phosphate buffer solution (pH: 7.0), and 5 ml of deionized water so as to achieve a final concentration of linoleic acid of […](mol/l). This solution was placed in a vial bottle having a capacity of 50 ml, and the closely plugged bottle was held in an incubator at 60° C. The total volume was always adjusted to 25 ml by reducing the above-mentioned ionized water, depending upon the quantity of added sample. At prescribed time intervals, 0.1 ml was sampled from this vial bottle to measure the quantity of peroxides by the following ferric thiocyanate method.
To the sample solution in an amount of 0.1 ml, 4.7 ml of 75% ethanol, 0.1 ml of 30% ammonium rhodanide, and 0.1 ml of 3.5% hydrochloric acid solution of 2×10^-2 M ferrous chloride were added, and absorbance at 500 nm was measured upon the lapse of just three minutes.

B1: Sample 3: Test 1 Sample 3: bovine lactoferrin (Sigma Company) added to linoleic acid (protein)
chain: APRKNVRWCTISQPEWFKCRRWQWRMKKLGAPSITCVRRAFALECIRAIAEKKADAVTLDGGMVFEAGRDPYKLRPVAAEIYGTKESPQTHYYAVAVVKKGSNFQLDQLQGRKSCHTGLGRSAGWIIPMGILRPYLSWTESLEPLQGAVAKFFSASCVPCIDRQAYPNLCQLCKGEGENQCACSSREPYFGYSGAFKCLQDGAGDVAFVKETTVFENLPEKADRDQYELLCLNNSRAPVDAFKECHLAQVPSHAVVARSVDGKEDLIWKLLSKAQEKFGKNKSRSFQLFGSPPGQRDLLFKDSALGFLRIPSKVDSALYLGSRYLTTLKNLRETAEEVKARYTRVVWCAVGPEEQKKCQQWSQQSGQNVTCATASTTDDCIVLVLKGEADALNLDGGYIYTAGKCGLVPVLAENRKSSKHSSLDCVLRPTEGYLAVAVVKKANEGLTWNSLKDKKSCHTAVDRTAGWNIPMGLIVNQTGSCAFDEFFSQSCAPGADPKSRLCALCAGDDQGLDKCVPNSKEKYYGYTGAFRCLAEDVGDVAFVKNDTVWENTNGESTADWAKNLNREDFRLLCLDGTRKPVTEAQSCHLAVAPNHAVVSRSDRAAHVKQVLLHQQALFGKNGKNCPDKFCLFKSETKNLLFNDNTECLAKLGGRPTYEEYLGTEYVTAIANLKKCSTSPLLEACAFLTR
For B1, the “Degree of peroxidation (absorbance at 500 nm)” value (“Degree of peroxidation” below) (period of preservation 0 days) was 0, the “Degree of peroxidation” value (period of preservation 3 days) was 0.23 and the “Degree of peroxidation” value (period of preservation 6 days) was 0.30. The “Degree of peroxidation” value (period of preservation 10 days) was 0.31 and the “Degree of peroxidation” value (period of preservation 13 days) was 0.32.
